From patent publication US20210008166A1 (SPECTRUM PHARMACEUTICALS, published 2021)

How the values were obtained:
[1] = target: GLP-1R on CHO cells (CHO/GLP-1R); assay: cell-based or functional assay
[2] = target: T1, Chinese hamster ovary (CHO) cell-derived soluble recombinant human G-CSF receptor (R&D Systems, 381-050/CF) (human, UniProt Q99062 25-627); assay: SPR (BIAcore 3000), receptor amine-coupled to CM5 chip, analyte 6.25-100 nmol/L, 25 C, 1:1 Langmuir fit
T1 construct: extracellular domain; Bought and amine-coupled to a CM5 chip; also called soluble human G-CSF receptor
T1 sequence (looked up): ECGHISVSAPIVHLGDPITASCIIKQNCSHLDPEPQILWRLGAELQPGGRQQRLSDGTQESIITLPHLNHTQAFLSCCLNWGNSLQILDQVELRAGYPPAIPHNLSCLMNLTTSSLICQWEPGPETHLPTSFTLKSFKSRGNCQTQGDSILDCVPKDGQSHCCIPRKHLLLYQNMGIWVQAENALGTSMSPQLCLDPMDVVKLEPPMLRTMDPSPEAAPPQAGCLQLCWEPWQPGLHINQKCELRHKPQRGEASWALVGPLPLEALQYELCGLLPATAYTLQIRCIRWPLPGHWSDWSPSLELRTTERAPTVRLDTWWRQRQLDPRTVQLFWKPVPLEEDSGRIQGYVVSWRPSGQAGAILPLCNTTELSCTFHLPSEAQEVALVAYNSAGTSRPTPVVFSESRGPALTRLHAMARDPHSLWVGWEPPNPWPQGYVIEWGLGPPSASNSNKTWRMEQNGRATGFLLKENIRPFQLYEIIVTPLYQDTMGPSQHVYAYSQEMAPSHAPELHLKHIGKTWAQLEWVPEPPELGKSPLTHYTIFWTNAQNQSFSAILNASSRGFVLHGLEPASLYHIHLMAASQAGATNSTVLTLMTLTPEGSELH
Text: Surface plasmon resonance technology and the BIAcore 3000 biosensor (GE healthcare) were employed to measure in vitro binding affinity to the G-CSF receptor. Amine-coupling chemistry was used to immobilize the G-CSF receptor on CM5 biosensor chip. […] The CM5 sensor chip surface was activated by injecting a 1:1 mixture of 0.1 mol/L N-hydroxysuccinimide (GE healthcare) and 0.1 mol/L 3-(N,N-dimethylamino)propyl-N-ethylcarbodiamide (GE Healthcare). […] The chip surface was then blocked with ethanolamine/HCl (GE Healthcare), pH 8.5, and washed with a regeneration solution (50 mmol/L NaCl; 5 mmol/L NaOH). […] Binding affinity was calculated using the 1:1 Langmuir fitting model for each test material.

[3] = target: T2, Fc fragment of eflapegrastim (human, UniProt P01861 107-325 = IgG part, aglycosylated (manufactured from recombinant E. coli cells)); assay: ELISA with GST-FcγRIIB, anti-GST detection
T2 construct: Unconjugated Fc carrier tested alongside eflapegrastim; also called aglycosylated human IgG4 Fc fragment; immunoglobulin Fc region (IgG4)
Protocol: For C1q, FcγRIIB, FcγRIIIA, and FcRn binding assays, serial dilutions of the test materials were added to 96-well microplates coated with C1q, or GST fusion proteins of FcγRIIB or FcγRIIIA, or FcRn αβ2. After incubation and washing, HRP-conjugated anti-C1q antibody was added for C1q binding assay, and rabbit-anti-GST antibody and HRP-conjugated anti-rabbit IgG antibody were sequentially added for FcγRIIB, FcγRIIIA, and FcRn binding assays. The absorbance was measured at 450 nm as described above for FcγRI binding assay.

T2 sequence (P01861 other isoform, or with tags, fused parts or gaps limits assumed): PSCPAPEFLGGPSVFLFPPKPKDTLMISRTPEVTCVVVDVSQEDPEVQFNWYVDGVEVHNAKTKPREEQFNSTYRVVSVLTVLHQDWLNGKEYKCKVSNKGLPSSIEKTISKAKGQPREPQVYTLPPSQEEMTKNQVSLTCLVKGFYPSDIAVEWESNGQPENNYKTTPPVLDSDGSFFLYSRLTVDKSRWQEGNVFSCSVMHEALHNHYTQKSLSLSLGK

CA Exendin (lysine)-PEG-(N-terminus) Fc - Experimental group (Fc fusion)
potency relative to the isomer linked at another position of Fc [1]: 6 times

CA Exendin (lysine)-PEG-(lysine) Fc (Fc fusion)
% vs. Experimental group [1]: 16.1% | EC50 (ng/ml), in vitro activity [1]: 590 ng/mL

B1: Pegfilgrastim (Neulasta) (ligand, UniProt P09919-2 31-204, looked up)
chain: TPLGPASSLPQSFLLKCLEQVRKIQGDGAALQEKLCATYKLCHPEELVLLGHSLGIPWAPLSSCPSQALQLAGCLSQLHSGLFLYQGLLQALEGISPELGPTLDTLQLDVADFATTIWQQMEELGMAPALQPTQGAMPAFASAFQRRAGGVLVASHLQSFLEVSYRVLRHLAQP
modifications: 20 kDa polyethylene glycol on the N-terminal methionine residue
notes: Commercial product
Kd [2]: 2.9 nM

B2: GST fusion protein of FcγRIIB (receptor, UniProt P31994 43-217, looked up)
chain: TPAAPPKAVLKLEPQWINVLQEDSVTLTCRGTHSPESDSIQWFHNGNLIPTHTQPSYRFKANNNDSGEYTCQTGQTSLSDPVHLTVLSEWLVLQTPHLEFQEGETIVLRCHSWKDKPLVKVTFFQNGKSKKFSRSDPNFSIPQANHSHSGDYHCTGNIGYTLYSSKPVTITVQAP
notes: not shown: GST
binding result [3]: no binding
